B1: OR4K15 (parent)
chain: GUUAACGGUCAUAGGCCAUGGAAACUAGGAGCACCAUUUCGCUGCCAGUGAAGAAAUGAACAAAGAAAAUCUGGGCCAGGCAGGCAUCAAAAGAAAUAGUCUUGCGCUCAACCAGAAAGUCUGUAAUCAUUUUAAGGGUA

Variants of: B1
Assay: self-cleavage, relative activity (ratio to wild type); higher = more cleavage; in vitro, sequencing; the parent is a self-cleaving ribozyme

Going from GUUAACGGUCAUAGGCCAUGGAAACUAGGGGCACCAUUUCGCUGCCAGUGAAGAAAUGAACAAAGAAAAUCUGGGCCAGGCAGGCAUCAAAAGAAAUAGUCUUGCGCUCAACCAGAAAGUCUGUAGUCAUUUUAAGGGUA to GAUAACGGUCAUAGGCCAUGGAAACUAGGAGCACCAUUUCGCUGCCGGUGAAGAAAUGAACAAAGAAAAUCUGGGCCAGGCAGGCAUCAAAAGAAAUAGUCUUGCGCUCAACCAGAAAGUCUGUAAUCAUUUUAAGGGUA, the self-cleavage rises from 1.23 to 1.42.

Going from GUUAACGGUCAUAGGCCAUGGUAACUUGGAGCACCAUUUCGCUGCCAGUGAAGAAAUGAACAAAGAAAAUCUGGGCCAGGCAGGCAUCAAAAGAAAUAGUCUUGCGCUCAACCAGAAAGUCUGUAAUCAUUUUAAGGGUA to GUUAACGGUCAUAGGCCAUGGAAACUAGUAGCACCAUUUCGCUGCCAGUGAAGAAAUGAACAGAGAAAAUCUGGGCCAGGCAGGCAUCAAAAGAAAUAGUCUUGCGCUCAACCAGAAAGUCUGUAAUCAUUUUAAGGGUA, the self-cleavage rises from 2.02 to 2.9.

Going from GUUAACGGUCAUAGGCCAUGGAAACUAGGAGCUCCAUUUCGCUGCCAGUGAAGAAAUGAACAAAGAAAAUCUGGGCCAGGCAGGCAUCAAAAGAAAUAGUCUUGCGCUCAACCAGAAAGUCUGUAACCAUUUUAAGGGUA to GUUAACGGUCAUAGGCCAUGGAAACUAGGAGCACCGUUUCGCUGCCAGUGAAGAAAUGAACAAAGAAAAUCUGGGCCAGGCUGGCAUCAAAAGAAAUAGUCUUGCGCUCAACCAGAAAGUCUGUAAUCAUUUUAAGGGUA, the self-cleavage falls from 1 to 0.1.

Going from GUUAACGGCCAUAGGCCUUGGAAACUAGGAGCACCAUUUCGCUGCCAGUGAAGAAAUGAACAAAGAAAAUCUGGGCCAGGCAGGCAUCAAAAGAAAUAGUCUUGCGCUCAACCAGAAAGUCUGUAAUCAUUUUAAGGGUA to GUUAACGGUCAUAGGCCAUGGAAACUAGGAGCACCAUUUCGCUGCCGGUGAAGAAAUAAACAAAGAAAAUCUGGGCCAGGCAGGCAUCAAAAGAAAUAGUCUUGCGCUCAACCAGAAAGUCUGUAAUCAUUUUAAGGGUA, the self-cleavage falls from 1.36 to 0.52.

Going from GUUAACGGUCAUAGGCCAUGGAAACUAGGAGCACCAUUUCGCUGCCAGUGAAGGAAUGAACAAAGAAAAUCUGGGCCAGGCAGGCAUCAAAAGAAAUAGUCUUGCGCUCAACCAGAAAGUCUGUAAUCAUUAUAAGGGUA to GUUAACGGUCAUAGGCCAUGGAAACUAGGAGCACCACUUCGCUGCCAGUGAAGAAAUGAAAAAAGAAAAUCUGGGCCAGGCAGGCAUCAAAAGAAAUAGUCUUGCGCUCAACCAGAAAGUCUGUAAUCAUUUUAAGGGUA, the self-cleavage falls from 1.73 to 0.78.

Going from GUUAACGGUCAUAGGCCGUGGAAACUAGGAGCACCAUUUCGCUGCCAGUGAAGAAAUGAACAAAGAAAAUCUGGGCCAGGCAGGCAUCAAAAGAAAUAGUCUUGCGCUCAGCCAGAAAGUCUGUAAUCAUUUUAAGGGUA to GUUAACGGUCAUAGGCCAUGGAAACUAGGAGCACCAUUUCGCUGCCAGUGAAGAAAUGAACAAAUAAAAUCUGGGCCAGGCAGGCAUCAGAAGAAAUAGUCUUGCGCUCAACCAGAAAGUCUGUAAUCAUUUUAAGGGUA, the self-cleavage rises from 0.03 to 0.96.

Going from GUUAACGGUCAUAGGCCAUGGAAACUAGGGGCACCAUUUCGCUACCAGUGAAGAAAUGAACAAAGAAAAUCUGGGCCAGGCAGGCAUCAAAAGAAAUAGUCUUGCGCUCAACCAGAAAGUCUGUAAUCAUUUUAAGGGUA to GUUAACGGUCAUAGGCCAUGGAAACUAGGAGCACCAUUUCGCUGCCAGUGAAGAAAUGAACAAAGAAGAUCUGGGCCAGGCAGGCAUCAAAAGAAAUAGUGUUGCGCUCAACCAGAAAGUCUGUAAUCAUUUUAAGGGUA, the self-cleavage falls from 1.15 to 0.08.

Compared with GUUAACGGUCAUAGGCCAUGGAAACCAGGAGCACCAUUUCGCCGCCAGUGAAGAAAUGAACAAAGAAAAUCUGGGCCAGGCAGGCAUCAAAAGAAAUAGUCUUGCGCUCAACCAGAAAGUCUGUAAUCAUUUUAAGGGUA, GUUAACGGUCAUAGGCCAUGGAAACUAGGAGCACCAUUUCGCUGCCAGUGAAGAAAUGAACAAAGAAAAUCUGGGCCAGGCAGGCAUCAAAAGAAAUAGUCUUGCGCUUAACCAGAAAGCCUGUAAUCAUUUUAAGGGUA is lower in self-cleavage: 0.54 for the first, 0.15 for the second.

First: GUUAACGGUCAUAGGCCAUGGAAACUGGGAGCACCAUUUCGCUGCCAGUGAAGAAAUGAACAAAGAAAAUCUGGGCCAGGCAGGCAUCAAAAGAAAUAGUCUUGCGCUCAACCAGAAAGCCUGUAAUCAUUUUAAGGGUA
Second: GUUAACGGUCAUAGGCCAUGGAAACUAGGAGCACCAUUUCGCUGCCAGUGAAGAAAUGAACAAAGAAAAUCUGGGCCGGGCAGGCAUCAAAAGAAAUAGUCUUGCGCUCAACCAGAAAGUCUGUACUCAUUUUAAGGGUA
The self-cleavage of the first is higher: 0.68 for the first, 0.09 for the second.

First: GUUAACGGUCAUAGGCCAUGGAAACUAGGAGCACCAUUUCGCCGCCAGUGAAGAAAUGAACAAAGAAAAUCUGGGCCAGGCAGGCAUCAAAAGAAAUAGUCUUGCGCUCAACCAGAAAGUCUGUAAUCAUUAUAAGGGUA
Second: GUUAACGGUCAUAGGCCAUGGAAACUAGGAGCACCAUUUCGCUGCCAGUGAAGAAAUUAACAAAGAAAAUCUGGGCCAGGCAGGCAUCAAAAGAAAUAGUCUUGCGCUCAACCAGAAAGACUGUAAUCAUUUUAAGGGUA
The self-cleavage of the first is higher: 1.82 for the first, 1.17 for the second.

GUUAACGGUCAUAGGCCAUGGAAACUAGGAGCACCAUUUCGCUGCCAGCGAAGAAAUGCACAAAGAAAAUCUGGGCCAGGCAGGCAUCAAAAGAAAUAGUCUUGCGCUCAACCAGAAAGUCUGUAAUCAUUUUAAGGGUA showed a self-cleavage of 0.9.

From the RNAGym collection of RNA variant scans (doi:10.7554/elife.90254)
